According to the supplement of paper PMC9170038:

Tested on: MS2 coat protein
Assay: apparent KD of MS2 coat protein; designed switch direction (-1 OFF switch, 1 ON switch): -1; higher = weaker reporter binding
Outline: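 RNA switches sharing common flanks were transcribed by stalled E. coli RNA polymerase on Illumina chips. A doubling series of SNAP-549-labelled MS2 coat protein, from 0.7 or 1.5 nM to 3 µM, was applied in Tris-HCl pH 7.5 buffer with KCl, MgCl2, BSA, DTT, tRNA and Tween-20. Each step lasted 0.8–1.5 h at the bottom of the series and 10–20 min at the top. Normalised cluster fluorescence was curve-fitted, giving apparent KD as the per-design median over clusters.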

[1] = Eterna round: R95, input ligand: microRNA oligo, concentration not stated
[2] = input ligand: microRNA oligo, concentration not stated
[3] = Eterna round: R95, input ligand: FMN 200 uM
[4] = Eterna round: R95, input ligand: none

Row | Sequence | apparent KD of MS2 coat protein (input ligand: FMN 200 uM) [nM] | apparent KD of MS2 coat protein (input ligand: none) [nM] | also measured
1 | CUCAGACAUGAGGAUCACCCAUGUGAGGAUAUGAUGCAGCAGUGGUCUACGCUGUGCAUCAGAAGGCACAUGUG (puzzle: Exclusion 1) | – | – | apparent KD of MS2 coat protein [1]: 33 nM
2 | UUCUUGGCAGGAUAUGCUUUUUUAGACAUGAGGAUCACCCAUGUGAUGAUUAUUGGUUUUGCAGAAGGGCCUUAAU [JR_E5_Sub041] (puzzle: Exclusion 5) | – | – | apparent KD of MS2 coat protein [1]: 49.4 nM
3 | AACAUGGCAGGAUAUUGAAAAUUGCACUUGAGGAUCACCCAAGUGGUUCUGCGGGCGAAGUAAGAAGGGCCUAAAA [Xeraabi] (Eterna round: R97, puzzle: Exclusion 5) | 232 | 27.3 | –
4 | UUGUUUGUAGUGAGGAUAUCGUUGAGGAAGAGGAUCGAGAAGGCACAUGAGGAUCACCCAUGUUAGAUGUGGUU [JR_BMOE4_Sub082] (Eterna round: R96, puzzle: Brourd's mod of Exclusion 4) | 261 | 161 | apparent KD of MS2 coat protein [2]: 114 nM
5 | UUGUGCACGCUGCGGUCCUACAUGAGGAUCACCCAUGUGGUCUGGUGGCGUGGGUCACCGGACUUGGCUCGUCUUGA [salish99_S_TOV1_R5_061] (Eterna round: R97, puzzle: Sensor, turn-off variant 1) | 52.7 | 57.8 | –
6 | GGUAGAGUGGUAGGAUAUCCGGCUGUUUCAGUCGGAGAAGGACCACAGUCACUGGGUCCAAAUAUGGGUGACCAUGUAUCUACC [pwkr exNG1 F6.6] (Eterna round: R96, puzzle: Exclusion NG 1) | 984 | 371 | apparent KD of MS2 coat protein [2]: 337 nM
7 | CCUCUUGGGCAAGGAUAUCCUGUGCGGUUCCGGCUCGUGUCUGUCACAUGAGGAUCACCCAUGUGGGAGAAGGUGCCUGCGGUC [Design 80] (Eterna round: R96, puzzle: Exclusion NG 2) | 13 | 16.3 | apparent KD of MS2 coat protein [2]: 10.7 nM
8 | AGUAACUAUCACGAAAGUGAUAGUUACAAUAGCAAGUGAACAUGAGGAUCACCCAUGUCCUCAUUUGCUCGUCUUAU [Sensor 3 - 20] (puzzle: Sensor v3, turn-off variant 2) | – | – | apparent KD of MS2 coat protein [3]: 16.1 nM; apparent KD of MS2 coat protein [1]: 632 nM; apparent KD of MS2 coat protein [4]: 13.6 nM
9 | GCCCGGGCAGGAUAUACAAGCUAGUGCUGAAAAGUGCUAGUACAUGAGGAUCACCCAUGUAGAAGGGCCCGGGC [-37.6, -35.7 kcal, A 28% 2bis] (Eterna round: R97, puzzle: Exclusion 2) | 30.5 | 18.1 | –
10 | AACACACAUGAGGAUCACCCAUGUGAGGAUAUCGUCGAGGUUGUAAUGCCAACCGUGACGAGAAGGCACUUGGG [Exclusion 1 (Mod 3.1 solution 40 by Eternabot)] (Eterna round: R97, puzzle: Exclusion 1) | 44.4 | 282 | –
11 | UGCGGUAGAGGAUAUACGUAGAAUUAGGUUCAUGUAAAACUACAUGAGGAUCACCCAUGUAGAAGGCUAUCGCU [JL-ex2-4.30 Eli mod] (Eterna round: R97, puzzle: Exclusion 2) | 85.4 | 21.2 | –
12 | UAAAAGCUAGGAUAUACUGGCACACAACUCAUAAAUUCAAGACAUGAGGAUCACCCAUGUAGAAGGAGCAAAUA [EX2 A.3] (Eterna round: R97, puzzle: Exclusion 2) | 63.5 | 23.6 | –
13 | UGCAGACGAGGAUAUAAAUUUAAAUACAUGAGGAUCACCCAUGUAUAAAUGUAUUUAAAUUUAGAAGGCGUCUGCU [E5/12-A4] (Eterna round: R97, puzzle: Exclusion 5) | 500 | 606 | –
14 | UUUCGGCAUGUAGGAUAUGGAUCCGAUUAGGAUUUAGAAGGACAUGAGGAUCACCCAUGUGCAUUUAAUUAGUCAUUACCGUUU [EXclNG1-LROPPY07] (Eterna round: R96, puzzle: Exclusion NG 1) | 79.9 | 67.1 | apparent KD of MS2 coat protein [2]: 42.8 nM
15 | UAUUAAUGCAAGGAUAUGCUUUUAAUUUUUUUUGCAGAAGGUGCAACAUGAGGAUCACCCAUGUUUGAGGGUAU [JR_E6_Sub030] (puzzle: Exclusion 6) | – | – | apparent KD of MS2 coat protein [3]: 68.4 nM; apparent KD of MS2 coat protein [1]: 59 nM; apparent KD of MS2 coat protein [4]: 53.8 nM
16 | CACCGUUAGUGAGGAUAUAUUACAUGAGGAUCACCCAUGUAAUAAAUGAGAAUUUCGGAUGUAUGAUAGAAGGCACAAAUCGGC [Ostricism 52 - Jieux - Exclusion NG 2] (Eterna round: R96, puzzle: Exclusion NG 2) | 11.2 | 13.1 | apparent KD of MS2 coat protein [2]: 11.2 nM
17 | GCGGUACAUGAGGAUCACCCAUGUUAGGAUAUUCUACGUCUCUAAUCUGAAACGCAAGGAAGAAGGAGCGUGGG [Eternabot (Original) Solution 21] (Eterna round: R97, puzzle: Exclusion 1) | 83.7 | 28.2 | –
18 | AUUCAGCGAGGAUAUACAGGUUCUGGGUGAGGCUCGGCGAGACAUGAGGAUCACCCAUGUAGAAGGUGCUAGCC [Rezalaes] (puzzle: Exclusion 2) | – | – | apparent KD of MS2 coat protein [1]: 277 nM

Row | Sequence | apparent KD of MS2 coat protein (input ligand: FMN 200 uM) [nM] | apparent KD of MS2 coat protein (input ligand: none) [nM] | also measured
19 | GUUAUGUUAGGAUAUGCUUAUGGUGGGUGCUCAGACAUGAUGCAGAAGGGACAUGAGGAUCACCCAUGUACUGU [EX4 #19] (Eterna round: R97, puzzle: Exclusion 4) | 777 | 991 | –
20 | CAGUACUGAGGAUAUACAUGAGGAUCACCCAUGUGUUCCAGCUAGGAGACUAGCAAAUGUAGAAGGCAGUACUG [jl-ex3-4.02 salish99 mod] (Eterna round: R97, puzzle: Exclusion 3) | 615 | 406 | –
21 | AAGUCGACGGUGAGGAUAUUAGUUGAACGACAGAUUAAGAAGGUACAUGAGGAUCACCCAUGUGGGUAGCGUUG [Brourd's EX4 #78] (Eterna round: R97, puzzle: Brourd's mod of Exclusion 4) | 73.2 | 80.9 | –
22 | AAUGUCUGAGGAUAUCGUUUUUUGUACAUGAGGAUCACCCAUGUCCAAUUUUGUAUAUUACGAGAAGGCAGUGGAA [JR_E5_Sub089] (puzzle: Exclusion 5) | – | – | apparent KD of MS2 coat protein [1]: 14.6 nM
23 | AAGUACCGUCACGAUAGUGAUGGUACAACAAGCAUGUAAACAUGAGGAUCACCCAUGUCCUCAAUUGCUCGUCUUAU [Sensor 3 - 68] (Eterna round: R96, puzzle: Sensor v3, turn-off variant 2) | 956 | 1060 | apparent KD of MS2 coat protein [2]: 809 nM
24 | UUUUAAAAGCUGAGAUCCUACAUGAGGAUCACCCAUGUGGUCCGGAAAAUUUUGUCACCGGAUUUUGCUCGUCUUGU [salish99_S_TOV1_R5_103] (Eterna round: R97, puzzle: Sensor, turn-off variant 1) | 102 | 114 | –
25 | AGUUGGCGAGGAUAUACAUGAGGAUCACCCAUGUGAGAGAUACUAGUGAGGUCGAUUAGUAGAAGGCGCUGACA [Mat - Exclusion 3 - Mod of JL D77] (puzzle: Exclusion 3) | – | – | apparent KD of MS2 coat protein [1]: 31.6 nM
26 | UUUUAACAUGAGGAUCACCCAUGUGAGGAUAUCGAAAUUUAUAUUAAUAUUUUUAUAUCGAGAAGGCACAUUUU [JMF 72] (puzzle: Exclusion 1) | – | – | apparent KD of MS2 coat protein [1]: 84.7 nM
27 | AUUAAAGACCGAGGAUAUCGAGGAAAUACCCUGCGAGAAGGCGGGUACUCGGACGAUUCGACAUGAGGAUCACCCAUGUGCACA [Atrivece] (Eterna round: R96, puzzle: Exclusion NG 1) | 26.6 | 25.9 | apparent KD of MS2 coat protein [2]: 24.5 nM
28 | UUAUUAAGUGUGAGGAUAUGCUGGUCCUUGGAUCAGCAGAAGGCACAUGAGGAUCACCCAUGUACUUUAUAAAU [JL bmx4 3.05] (puzzle: Brourd's mod of Exclusion 4) | – | – | apparent KD of MS2 coat protein [1]: 14.6 nM
29 | AAAGUACAUGAGGAUCACCCAUGUCAGGAUAUUGCCACAAGGCCCGGAGCCCAGAGCGCGAGAAGGGACAUUAG [Eternabot (Original) Solution 12] (Eterna round: R97, puzzle: Exclusion 1) | 55.4 | 24 | –
30 | AGUACUAACACGGAAGUGUUAGUACAAUAAGCUUGUGAAACAUGAGGAUCACCCAUGUCCUCAUAAGCUCGUCUUAU [salish99_TOv2_r3_026] (puzzle: Sensor v3, turn-off variant 2) | – | – | apparent KD of MS2 coat protein [3]: 11.1 nM; apparent KD of MS2 coat protein [1]: 315 nM; apparent KD of MS2 coat protein [4]: 18.1 nM
31 | CCUCUACAUGAGGAUCACCCAUGUGAGGAUAUCAGUGCAAAGGGCACGUAUUAAAACGUGAGAAGGCACAUGGG [EX1 A.17] (Eterna round: R97, puzzle: Exclusion 1) | 88.9 | 135 | –
32 | CUGUUCCAUGUAGGAUAUGCAUAUUCUCAUUAUGCAGAAGGACAUGAGGAUCACCCAUGUAUGUUAUUAUCAUAUGUUACAUGU [Design 4] (Eterna round: R96, puzzle: Exclusion NG 1) | – | – | apparent KD of MS2 coat protein [2]: 27.2 nM
33 | AUUAUAUAGGAAGGAUAUAGAAUAUUAUUUUAACAUGAGGAUCACCCAUGUAACCUUAUGUGUAGCUAGAAGGUCCAUUUGUUA [Title] (Eterna round: R96, puzzle: Exclusion NG 2) | – | – | apparent KD of MS2 coat protein [2]: 221 nM
34 | AAACUACUAGGAUAUACAACGGUGUCCUAACUACUAAGAAAACAUGAGGAUCACCCAUGUAGAAGGAGUAGUGA [Lauslabe] (Eterna round: R96, puzzle: Exclusion 2) | – | – | apparent KD of MS2 coat protein [2]: 28.6 nM
35 | ACUCAGUGAGGAUAUCGCCAGAGAACCGUAACGGUCUCUGAUGAGAAGGCACAUGAGGAUCACCCAUGUAAGCA [EX4 C.3] (Eterna round: R97, puzzle: Exclusion 4) | 278 | 174 | –
